This note sets out measurements from US20090142855A1 (published 2009).

For the experiment, the target named is T1, human IL12RB1 Fc fusion protein (human, UniProt P42701 24-545).
T1 construct: Purchased from R & D systems; Coated on the ELISA plate; also called human IL-12RB1 receptor subunit; human IL12 receptor; not shown: Fc part of the purchased fusion protein (R & D systems)
Briefly: ELISA, receptor-Fc coated on plate, titration of cytokine, detection with anti-human p40 monoclonal antibodies. The method, then:
To test whether cynomolgus IL-23 binds to the human IL23 receptor (“IL23R”), and whether cynomolgus IL-12 binds to the human IL12 receptor (“IL12RB1”), human IL23R Fc and human IL12RB1 Fc fusion proteins were purchased (R & D systems) for an ELISA assay. To capture IL23R Fc fusion protein, 500 ng of IL23R—Fc protein in 100 μl of PBS (pH 7.4) was put onto a 96-well Maxisorb plate (NUNC, Rochester, N.Y.) and incubated overnight at 4° C. Likewise, to capture IL12RB1 Fc fusion protein, 500 ng of IL12RB1 Fe protein in 100 μl of PBS (pH 7.4) was put onto a 96-well Maxisorb plate (NUNC, Rochester, N.Y.) and incubated overnight at 4° C. For each, the capture solution was thrown away after overnight incubation and the plate was washed with 200 μl per well of TBST (25 mM Tris-HCl pH 7.5, 150 mM NaCl and 0.01% Tween 20) three times. The plate was then blocked with 200 μl per well of TBST containing 5% nonfat dry milk for 30 minutes at room temperature. After blocking, the plate was washed 3 times with 200 μl per well of TBST at room temperature and a titration of cynoIL23 or cynoIL12 in PBS was added to the plate and incubated at room temperature for 1 hour. […] A 100 μl solution containing 2 NH₂SO₄ was added to stop the reaction and the plate was read on a 96 well SpectroMax plate reader at 450 nm.

B1: cynomolgus IL-12 (single chain: cyno p40 - 2 bovine elastin motifs - cyno p35) (ligand)
chain: IWELKKDVYVVELDWYPDAPGEMVVLTCDTPEEDGITWTLDQSGEVLGSGKTLTIQVKEFGDAGQYTCHKGGEALSHSLLLLHKKEDGIWSTDVLKDQKEPKNKTFLRCEAKNYSGRFTCWWLTTISTDLTFSVKSSRGSSNPQGVTCGAVTLSAERVRGDNKEYEYSVECQEDSACPAAEERLPIEVMVDAIHKLKYENYTSSFFIRDIIKPDPPKNLQLKPLKNSRQVEVSWEYPDTWSTPHSYFSLTFCIQVQGKSKREKKDRIFTDKTSATVICRKNASFSVQAQDRYYSSSWSEWASVPCSVPGVGVPGVGRNLSVATPGPEMFPCLHHSQNLLKAASNTLQKARQILEFYPCTSEEIDHEDITKDKTSTVEACLPLELIKNESCLNSRETSFITNGSCLASRKTSFMMALCLRSIYEDLKMYQVEFKTMNAKLLRDPKRQIFLDQNILGVIDELMQALNFNSETVPQKSSLEEPDFYKTKIKLCILLHAFRIRAVTIDRVMSYLNAS
notes: expressed in 293F cells and purified from the supernatant, about 95% pure; Any vector-derived residues at the junctions or a signal peptide are not described; also called cynoIL12; cyno IL-12
Consider B1, for which the binding result was “binds”.
